We go through one molecule from patent publication US20170145086A1.

Assay [1] concerns the target HA-GCN4 hAPRIL (amino acid residues 105-250) (human) (UniProt O75888). Put plainly: indirect ELISA, purified antibody, 3-parameter fit. For orientation: In an ELISA, binding on a coated surface is turned into a signal by an enzyme label.
Assay [2] has the same target. Put plainly: blocking ELISA; blocked: APRIL binding to TACI-Fc.
For assay [3] the target is unchanged. Put plainly: blocking ELISA; blocked: human APRIL binding to human BCMA-Fc.
The target is the same in assay [4]. Put plainly: blocking ELISA; blocked: human APRIL binding to human TACI-Fc.
For assay [5] the target is unchanged. Put plainly: blocking ELISA, 4-parameter fit; blocked: human APRIL binding to human BCMA-Fc.
Assay [6] shares this target. Put plainly: blocking ELISA, 4-parameter fit; blocked: human APRIL binding to human TACI-Fc.

Sequence of HA-GCN4 hAPRIL (amino acid residues 105-250) (human) (O75888 105-250): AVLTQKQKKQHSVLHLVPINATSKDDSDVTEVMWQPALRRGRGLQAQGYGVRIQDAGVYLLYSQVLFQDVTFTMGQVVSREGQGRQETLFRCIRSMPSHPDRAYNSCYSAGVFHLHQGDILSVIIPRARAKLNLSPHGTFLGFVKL

B1: 0201 (antibody, from another filing)
scFv: EVQLVQSGAEVKKPGASVKVSCKTSGYTFTDNYMHWVRQAPGQGLEWMGWISPNSSTTLYAQKFRGRVTLTRDTSVSTAYMELSGLDSDDTALYFCARGGRLAGSTVFTPAFEYWGRGTMVTVSSGGGGSGGGGSGGGGSAQAVLTQPSSVSEAPRQRVTISCSGSSSNIGNNAVKWYQQLPGKAPKLLIYYDDLLPSGVSDRFSGSKSGTSASLAISGLQSEDEADYYCAAWDDSLNGYVFGTGTKVTVLG
Molecule B1 had a 50% effective concentration (EC50) in assay [1] of 0.0104 µg/mL. Besides, the concentration for half-maximal inhibition (IC50) in assay [2] was 0.204 µg/mL; in assay [5], 3.14 nM; in assay [6] it was 2.85 nM. The % Inhibition in assay [3] and in assay [4] was 99% in each case.

The EC50 is the concentration that produces a half-maximal response. Read a high EC50 as a need for much substance. As a reminder, the IC50 is the concentration at which inhibition is half-maximal. Read a low IC50 as greater potency. The % Inhibition is how much of the control response was suppressed. Read a high % Inhibition as a response far below the control.
